{"source": "paper PMC11548882", "origin": "cited, not measured here", "biological_target": "EGFR (Homo sapiens) (UniProt P00533)"}
{"substance": "EGF (from UniProt P01133)", "values": [{"measurement": "Kd", "value": 4, "unit": "nM"}]}
